Experimental data reported in patent publication US20250277030A1, “ANTI-NAPI2B ANTIBODIES AND METHODS OF USE” (Zymeworks BC Inc., priority 2022, published 2025).

Experiments:
cynomolgus NaPi2b = test: Flow cytometry binding to HEK293-6e cells transfected with cynomolgus NaPi2b (Example 5); settings: transfected HEK293-6e cells
Protocol: The binding cross-reactivity of humanized antibody variant v29456 to human, cynomolgus and mouse NaPi2b was assessed by flow cytometry using HEK293-6e transfected cells.
(§1) Briefly, HEK293-6e cells were transfected for ˜24 hours to transiently express human NaPi2b, cynomolgus or mouse NaPi2b, at 1 μg of DNA per 1 million cells. Following transfection, 50,000 cells per well were seeded in V-bottom 96-well plates and incubated with 200 nM of primary antibody for 18-24 hours at 4° C. to prevent internalization. Post-incubation, cells were washed and stained with anti-Human IgG Fc AF647 conjugate (Jackson Immuno Research Labs, West Grove, PA, Cat. No. 109-605-098, Lot. No. 124868) at 4° C. for 1 hour. Following staining and washing, fluorescence was detected by flow cytometry on BD LSRFortessa™ Cell Analyzer (BD Biosciences, Franklin Lake, NJ) with 10,000 minimum events collected per well. The AF647/APC-A GeoMean (fluorescence signal geometric mean, proportional to anti-Human AF647 binding) was calculated for the live singlet cell population for each primary antibody using FlowJo™ v8 software (BD Biosciences, Franklin Lake, NJ). The Bmax and Kd of each primary antibody were calculated using GraphPad Prism Version 9 (GraphPad Software, San Diego, CA)

KLH = test: NS-ELISA non-specific binding, KLH; settings: mAb at 100 nM
Protocol: (§2) The isoelectric point was measured by capillary isoelectric focusing (cIEF), the propensity for self-aggregation was measured by Affinity-capture self-interaction nanoparticle spectroscopy (AC-SINS) and non-specific binding was measured by NS-ELISA, as described below.
(§3) NS-ELISA was used to measure the propensity of the antibodies to bind to a range of biomolecules to emulate the undesirable non-specific interactions to biological matrices in vivo as described below.
(§4) NS-ELISA was carried out in Corning®96-well EIA/RIA Easy Wash™ Clear Flat Bottom Polystyrene High Bind Microplate coated overnight at 4° C. with 50 μL of Heparin (Sigma, H3149) diluted with 50 mM sodium carbonate pH 9.6 to a final concentration of 250 μg/mL. The plate was incubated for 2 days at room temperature, wells that were coated with heparin were not covered to allow air dry. […] Reactions were stopped after approximately 10 minutes by adding 100 μL of 1 M HCl to each well, and absorbance was read at 450 nm. Binding scores were calculated as the ratio of the ELISA signal of the antibody (antibody-treated) to the signal of a well containing buffer instead of the primary antibody (untreated). The cutoffs considered for each binding molecule (ssDNA, KLH, insulin, dsDNA and heparin) were internally calculated, based on the average of Zymeworks Inc. produced antibodies and antibodies benchmarks published in the literature.

[1] = biological target: T1, NaPi2b expressed on HCC-78 cells (Homo sapiens, UniProt O95436); test: Cellular binding of antibody and ADCs to HCC-78 cells by flow cytometry (Example 14)
T1 construct: endogenous in cells; host or cells: HCC-78
T1 sequence (O95436 1-690): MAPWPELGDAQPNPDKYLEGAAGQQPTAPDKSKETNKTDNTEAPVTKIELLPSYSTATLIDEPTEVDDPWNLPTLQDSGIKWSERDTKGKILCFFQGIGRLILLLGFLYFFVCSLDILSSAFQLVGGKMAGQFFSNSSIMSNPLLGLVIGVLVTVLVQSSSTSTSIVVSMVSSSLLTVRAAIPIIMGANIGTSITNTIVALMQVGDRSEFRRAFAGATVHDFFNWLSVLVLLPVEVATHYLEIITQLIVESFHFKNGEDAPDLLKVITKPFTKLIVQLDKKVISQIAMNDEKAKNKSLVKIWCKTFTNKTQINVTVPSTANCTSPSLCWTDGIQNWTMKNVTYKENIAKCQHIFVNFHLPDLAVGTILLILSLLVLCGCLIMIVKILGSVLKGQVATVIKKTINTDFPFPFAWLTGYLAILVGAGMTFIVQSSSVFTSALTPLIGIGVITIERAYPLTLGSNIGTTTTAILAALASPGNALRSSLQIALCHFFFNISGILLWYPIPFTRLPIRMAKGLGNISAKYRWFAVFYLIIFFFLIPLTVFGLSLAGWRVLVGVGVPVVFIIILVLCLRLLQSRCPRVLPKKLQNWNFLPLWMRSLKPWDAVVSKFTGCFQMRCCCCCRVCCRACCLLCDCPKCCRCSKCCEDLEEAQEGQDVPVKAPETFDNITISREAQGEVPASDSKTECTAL
Protocol: as §1
(§5) The ability of ADCs to bind to cells expressing NaPi2b was assessed. ADCs of a representative humanized variant antibody, v29456 (H1L2), were prepared by conjugation to DL2 and DL1 as described in Example 11. Binding to endogenous high NaPi2b-expressing cell lines IGROV-1 and HCC-78 was assessed by flow cytometry according to methods described in Example 5.

[2] = biological target: T2, NaPi2b expressed on IGROV-1 cells (Homo sapiens, UniProt O95436); test: Cellular binding of antibody and ADCs to IGROV-1 cells by flow cytometry (Example 14)
T2 construct: IGROV-1 cells express endogenous NaPi2b at a high level; endogenous in cells; host or cells: IGROV-1
T2 sequence (O95436 1-690): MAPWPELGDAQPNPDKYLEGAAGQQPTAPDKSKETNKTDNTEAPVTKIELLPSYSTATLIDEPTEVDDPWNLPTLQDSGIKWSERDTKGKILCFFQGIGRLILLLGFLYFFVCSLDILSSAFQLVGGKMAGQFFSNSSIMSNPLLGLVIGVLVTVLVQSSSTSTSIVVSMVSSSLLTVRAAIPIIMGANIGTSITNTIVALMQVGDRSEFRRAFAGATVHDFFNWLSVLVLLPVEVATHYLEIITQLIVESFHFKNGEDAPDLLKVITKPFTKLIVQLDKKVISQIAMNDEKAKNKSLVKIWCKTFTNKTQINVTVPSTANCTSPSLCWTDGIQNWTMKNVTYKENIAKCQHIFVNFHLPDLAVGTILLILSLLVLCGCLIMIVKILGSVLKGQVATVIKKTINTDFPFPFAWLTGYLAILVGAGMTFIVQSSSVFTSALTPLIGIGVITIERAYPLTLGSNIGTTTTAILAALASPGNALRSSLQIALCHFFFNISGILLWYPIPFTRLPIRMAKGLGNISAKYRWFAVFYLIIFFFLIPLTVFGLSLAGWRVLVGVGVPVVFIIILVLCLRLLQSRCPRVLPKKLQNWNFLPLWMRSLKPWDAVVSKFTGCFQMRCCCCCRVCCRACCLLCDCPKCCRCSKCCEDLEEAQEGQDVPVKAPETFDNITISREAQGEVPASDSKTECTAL
Protocol: as §1, §5

ssDNA = test: NS-ELISA non-specific binding, ssDNA; settings: mAb at 100 nM
Protocol: as §2, §3, §4

Chain of cynomolgus NaPi2b (as listed by the source): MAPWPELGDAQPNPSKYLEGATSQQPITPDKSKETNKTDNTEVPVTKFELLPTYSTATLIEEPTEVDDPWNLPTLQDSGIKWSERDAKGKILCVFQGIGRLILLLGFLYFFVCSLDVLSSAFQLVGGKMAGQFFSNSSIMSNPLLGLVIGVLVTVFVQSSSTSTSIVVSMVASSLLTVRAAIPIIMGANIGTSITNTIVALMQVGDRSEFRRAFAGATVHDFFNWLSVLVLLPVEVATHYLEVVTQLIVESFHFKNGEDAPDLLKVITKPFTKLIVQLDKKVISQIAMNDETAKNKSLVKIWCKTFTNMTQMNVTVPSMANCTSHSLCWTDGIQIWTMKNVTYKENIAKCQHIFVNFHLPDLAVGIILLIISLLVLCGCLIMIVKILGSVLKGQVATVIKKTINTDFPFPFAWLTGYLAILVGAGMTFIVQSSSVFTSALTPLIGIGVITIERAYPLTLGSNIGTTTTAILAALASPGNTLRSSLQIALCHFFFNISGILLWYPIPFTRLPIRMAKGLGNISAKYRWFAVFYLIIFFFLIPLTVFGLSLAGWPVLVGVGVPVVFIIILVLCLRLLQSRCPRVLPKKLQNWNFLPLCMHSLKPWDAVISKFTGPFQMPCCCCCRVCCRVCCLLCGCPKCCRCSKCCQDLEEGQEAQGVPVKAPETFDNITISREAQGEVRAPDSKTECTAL

- NS-ELISA binding score (ratio of signal between antibody-treated and untreated), KLH (KLH): 1.37
- Bmax [1]: 21,785
- Curve Hill Slope (h) [1]: 1.2
- Kd ([1]; apparent Kd): 2.27 nM
- Bmax (MFI) [2]: 78,059 MFI
- Curve Hill Slope (h) [2]: 1.7
- Kd ([2]; apparent Kd): 0.65 nM
- NS-ELISA binding score (ratio of signal between antibody-treated and untreated), ssDNA (ssDNA): 1.06
B1: v29456: humanized anti-NaPi2b IgG1/kappa antibody H1L2; VH SEQ ID NO:24, VL SEQ ID NO:29 (antibody, V domains shown)
VH: QVQLVQSGAEVKKPGASVKVSCKASGFTFTSYNVHWVRQAPGQGLEWMGAISPGNGDLSYAQKFQGRVTMTRDTSTSTVYMELSSLRSEDTAVYYCARGRTGMGAVDYWGQGTLVTVSS
VL: DVQMTQSPSSLSASVGDRVTITCRASQDVYSYLNWYQQKPGKAVKLLIYYTSRLQSGVPSRFSGSGSGTDYTLTISSLQPEDFATYYCQQYNIFPWTFGQGTKLEIK
modifications: v29452, v29456, v29460 VH (H1); v29453, v29454, v29455, v29456 VL (L2)
- apparent Kd on cynomolgus NaPi2b, fold lower than v18992 (MX35) (cynomolgus NaPi2b): 10 fold
- Bmax (APC-A GeoMean), Cyno NaPi2b (cynomolgus NaPi2b; 18-24 hours at 4° C.): 2,006 APC-A GeoMean
- Kd (cynomolgus NaPi2b; 18-24 hours at 4° C., highest antibody concentration 200 nM, read-out: Apparent Kd (nM), Cyno NaPi2b): 3.2 nM
